Data published in a protein production outcome set (Wang et al. 2014).

Assay: label from the status in PepcDB records

**Q.** For “SVMAEGTAVLRRNRPGTKAQDFYNWPDESFDEMDSTLAVQQYIQQNIRADCSNIDKILEPPEGQDEGVWKYEHLRQFCLELNGLAVKLQSECHPDTCTQMTATEQWIFLCAAHKTPKECPAIDYTRHTLDGAACLLNSNKYFPSRVSIKESSVAKLGSVCRRIYRIFSHAYFHHRQIFDEYENETFLCHRFTKFVMKYNLMSKDNLIVPILEEEVQNSVSGESEA”, which protein production is on record?
**A.** failed

**Q.** For “MINEHYIPQAVILANGEYPAHELPLRLLAEAQFVVCCDGAANEYISRGHTPDVIIGDGDSLLPEYKKRFSSIILQISDQETNDQTKAVHYLQSKGIRKIAIVGATGKREDHTLGNISLLVEYMRSGMEVRTVTDYGTFIPVSDTQSFASYPGQQVSIINFGAKGLKAEGLFYPLSDFTNWWQGTLNEAIADEFTIHCTGEYLVFLAY”, which protein production is on record?
**A.** not failed

**Q.** For “MEDQGVLAGFFALSFAFILVILIWAIISYLLTAFALYSMAKNDGATDGVLAFIPFLNSKTWGDLAKDKLPDFLKEEAGWKVFGIYVACFIFNFVPIISLLATAVSIVLSIYLIYAILDRYGTNSILFTIIHVITFSVFLPIHLFIIRNEPVRYKE”, which protein production is on record?
**A.** failed

**Q.** With “MTAASETFDVVVVGAGPAGGQCARRLAQAGRTVLLVDQLKTWTDHDFSSGGTPLETLDRFQLPDRVIGSRWSQLRVVTTREDHTWKSARSLGCVLDFAALRQFLAEETTTHGGSVRLGWQYRDRQQLTDGRWQIRFRDRLTSSDRWVTSRAVVDATGSARKVIYTAAEPRPDYLRGVGIEYLIEVPETVYQRFADALHFYLGHHWLPKGYSWIFPMQSGRLKVGACWFHGDHRFLKPDQPLRHYIDLLLTEQVQCPDYRLVDVHGAAIDYSGDRCDRHVQASILGIGDAVSAINFLGGEGIRHGLESADRAAQVLDAWLQGTVPDLSSYEQQIRRRFDRLWTLSLRLGMKKYLQDSDAKIDRIVRWCCALSTDDLMAILFDYRFQRLGRRLGRFFWLSVMTRLRLRWQRWRRPSHVA” as the sequence, how does the protein production read?
**A.** failed

**Q.** For “MSERRDAILKASATAIAQRGIRGLRVNDVAEVAGVSPGLLYYHFKDRIGLLEAALNYINDRARAYRSEGEGSGDSARDRLTRSLLGEIQDRPEVVENSLAWNELRASAVYEEALRDPLARTTAAWVSEIADAIVQAQATGEISRSLDPQPTAVTMTALVEGLSGRWLCKEISTEDARSHLLGAIDVVMSEPTHHTADTPVTPTPKEYR”, which protein production is on record?
**A.** not failed

**Q.** Which protein production does the source give for “MVKLIHTLADHGDDVNCCAFSFSLLATCSLDKTIRLYSLRDFTELPHSPLKFHTYAVHCCCFSPSGHILASCSTDGTTVLWNTENGQMLAVMEQPSGSPVRVCQFSPDSTCLASGAADGTVVLWNAQSYKLYRCGSVKDGSLAACAFSPNGSFFVTGSSCGDLTVWDDKMRCLHSEKAHDLGITCCDFSSQPVSDGEQGLQFFRLASCGQDCQVKIWIVSFTHILGFELKYKSTLSGHCAPVLACAFSHDGQMLVSGSVDKSVIVYDTNTENILHTLTQHTRYVTTCAFAPNTLLLATGSMDKTVNIWQFDLETLCQARSTEHQLKQFTEDWSEEDVSTWLCAQDLKDLVGIFKMNNIDGKELLNLTKESLADDLKIESLGLRSKVLRKIEELRTKVKSLSSGIPDEFICPITRELMKDPVIASDGYSYEKEAMENWISKKKRTSPMTNLVLPSAVLTPNRTLKMAINRWLETHQK” here?
**A.** failed

**Q.** Which protein production does the source give for “MSFSDHFSAVAASYAKARPRYPQRWFRYLARIVPDRQRVWDCATGNGQAAIALAEYFSEVIGSDASAAQVRQARSHPRVQYLVFPAEATPLAPASLDLITVAQAAHWFDLPQFYIEAQRLLRPGGVIALWGYGLGSLNPAIDHVFNHFYRDWLDPYWPPERQWVEQAYEGLSFPFEPLPTPTFSMQCDWTLFDLLAYLRTWSGVQQFQRQRGFDPVWAIAPELQRVWGDPQRYRRITWPLFAKVGRWQPDRVRLEHHHHHH” here?
**A.** failed

**Q.** With “MFKNNDFIYIEYTAKIKDTGEIVDTTNEEEAKKANIYDETRNYGPRLVILGENRLIKGLEEALYNFNLNEEKTIEIPPEKAYGERDNSKIKIVPLGELRRQGITAVPNRVLRLSDGSLAVIRSVSGGRVVLDLNHPLAGRTLVYNVKVVKVLNNAKDKIMALIERRFSSKYANGFNVELDDGKKSVRITIPKDLYLVEDLQINVYSLAYEIVNYVLADYTVEVLQQYNKSTFSSS” as the sequence, how does the protein production read?
**A.** failed

**Q.** With “MSRTVMCRKYHEELPGLDRPPYPGAKGEDIYNNVSRKAWDEWQKHQTMLINERRLNMMNAEDRKFLQQEMDKFLSGEDYAKADGYVPPSA” as the sequence, how does the protein production read?
**A.** not failed

**Q.** For “MTRTEYLAELDKYLRKLPREDYHEAMEYYIEYFDEAGPDKESQVIDDLGNPKEAASEIISNVLGKHLATPEKTPKNRATIIGLTILSLFAAPIALPVLLALILFIIACLMLGLTAIFAAYIFGLAGILVAGVTLFESLTLIGSSIPAQAMGIGSALLCFGGGLLIWIIATAFLRFSGRAFVAFIKWISNKKGAQA”, which protein production is on record?
**A.** failed

**Q.** With “MSFDISELLTLYDVVTFSFPERYEDLMREIIEKATRLFGVRRLAIVLREGERYKCIERWGFRRDEEVLERIKNGGENSFIYLMRNGEQGLLYIEPPGRISEREKRLYTIFARRIENIIARKQIEEKIKNSEQEKKVILDSIVELLVFQNPDNRILWANRAAAEYAGARSEELAGRFCYEALHHRDEPCEECPVIKALDTGVPQEGIIASLEGRQFFVRGYPVKKENGLIEGIVEVSVDVTERMQAEEAFRTIFNSVHDAIFIHTLDGKIIDVNQTMLRMYVINSKEEAIKLSIIDDYSIPGSTAEQLPLLWQKVISGENLLFEWKARRPVDGSVFDVEVFLKKISLSKKDVILAAVRDITERKREEELLRNLFTHSPIGMYIVSEGKFQLINPQFEILTGYRQDKLIGMESLNLVVPEDRKMVRSNAIKMLKGEAVEPYEFRIVTGQGDIRWMEETVASIWHDGKRVTLGNIIDITQKKKFEQKLAYISLHDQLTALYNRAYFEEELKRLSTSRKYPITIIVADVNGLKLVNDTMGHDKGDELLTACARVLKKAFRSSDVVARVGGDEFVALLPRTDGKTGKSILKRLRLFIDKYNQEHPELPLSVSFGIATADTPEQSLKEIYKKADDLMYQEKLNLGSSARSKIVNALLTALSERDYITEGHARRMQKLCQDLGEKVGLSAQQLANLSLLAQVHDLGKVGIPDRILFKRGPLTEKEWEVMRQHPEKGYRIAMSSPDLAGIADLILKHHEKWDGTGYPLGLKEEEIPIECRILSIVDAFDAMTSGRPYCRTKTIEDALKEIRRCAGTQFDPRLAEAFIEMITSEKFTAGEKEVAT” as the sequence, how does the protein production read?
**A.** failed

**Q.** Which protein production does the source give for “MTLSIAHLGPPGTYAEQAAVLYVNWLTKSTGDEATLSPYPTISQSLHAVADGQAHLAVVPVENSIEGSVTTTLDALWQLDSLRIQLALVLPIVHTLISCASGLDKIETVYSHPQALAQCQGWLERFLPTVQIVPSNSTTEALQRLEQETTTAAIASSRAAQLYNLPILATGINDYPENCTRFWVVSQGEADAGYQTSKVPTSHTSLAFSMPANTPGALVKPLQIFAQLGINLSRIESRPTKRSLGEYLFFMDLEADVKESQMQSALAELTIHTEILKILGAYNVLPIGAFT” here?
**A.** failed

**Q.** For “MSVWLLQMKTNAIITDITKSIVKMDRILVYRHTNPDPDAIGAQFGLVALLKAAYPEKLVVAMAPVPGHLAWIDTTDEQLVTPQATDLVIAVDCANHERLAGELPTGAFVIKIDHHPNHDPYGQLNWVDETYSSCSEMIYELAQAGCFTVTAAVATKLYAGIIGDTVRFSTPETSTRTLKIASALAATDIDIATISHHEMDLT”, which protein production is on record?
**A.** failed

**Q.** For “MEMYFKRMKDEWTGLVEQADPPIRAKAAEIAVAHAHYLSIEFYRIVRIDPHAEEFLSNEQVERQLKSAMERWIINVLSAQVDDVERLIQIQHTVAEVHARIGIPVEIVEMGFRVLKKILYPVIFSSDYSAAEKLQVYHFSINSIDIAMEVMTRAFTFSDSSASKEDENYRIFSLLENAEEEKERQIASILSWEIDIIYKILLDSDLGSSLPLSQADFGLWFNHKGRHYFSGIAEVGHISRLIQDFDGIFNQTMRNTRNLNNRSLRVKFLLQIRNTVSQIITLLRELFEEVSRHEVGMDVLTKLLNRRFLPTIFKREIAHANRTGTPLSVLIIDVDKFKEINDTWGHNTGDEILRKVSQAFYDNVRSSDYVFRYGGDEFIIVLTEASENETLRTAERIRSRVEKTKLKAANGEDIALSLSIGAAMFNGHPDYERLIQIADEALYIAKRRGRNRVELWKASL”, which protein production is on record?
**A.** failed

**Q.** With “MTLTDISLAQAFISIPQDVIALDLSNNLLGSKSCVDLLVNIADCIPAGVTSLDLSSNGLRLTQVSLVTPKHVTSLNLCFNPLHEISIDGLEWLKDSLAHIQIIYLSYDMVNNMSREQRQAFRAVIPNIQTIILVDKNGKEIGPSHTAKIANLISELGGGNPEVPSLEHHHHHH” as the sequence, how does the protein production read?
**A.** failed

**Q.** For “MDNSGIYVGLDIGTTSIKVIVAERVKGQMNVIGVGSARSNGLSRGVIVDIDKAAETIRSAVRQAEEKASIEIKKVIAGVPANLVKIERCRGMIAVADESKEINNEDVQNVAAAALVQSLPPEREVLDVIPDEFVVDGFDGIKDPRGMVGVRLEMHGTLFTGPKTIIHNTRKALEKAGLQIEQIVIAPLALSSLVLNDGEQDFGSIIIDMGGGQTTAAVIHDHQLKYTYVDQEGGQYITKDISVVLNTSIENAEKLKRDYGYADAQQASDDELFPVDVVGQSTPEQISEQYLAEIIEARLDQIFDKVKQHLDEIRALELPGGIVLTGGVAALPGITDLAAQRFGTRVRVFTPNQMGLRHPSFDEALAVIKYQAALSEVTLLVKSALTGDTRASVALEFADTTPAPSQPAAQPKKATKKQSAPQAPQEQADPDHKGTVERVKGFFNHFFD”, which protein production is on record?
**A.** failed

**Q.** For “MAQPLFSLDGQSLITPQSVSNKFPSPHNHNETDRLRIAEAEFAVVINIAVQRFAAGKNLPDAVRWLIGQLHDIRQKFGAAVWQKIIPIIQAHPSATILQQCPFTRWSFEKPRGYSGDAGLIDFIYGHPAVAEEVARSTPLGLNIFEYTINAPGPVAVRERRDTLTRYVDETAVRTGSDTEILAIAAGHLREAEASKALAEGRLKRWVALDQDPESIGSISSQFHGTSVQPINGSVRGLLARKHQIGTFDLIYAAGLYDYLTDKVAIRLTQICMEMLKPGGVFLFANFSDEMADDGYMESYMNWELLQRSEADMWRITNAGATQNAVDKTVWFGANRNIIYSTIRKRS”, which protein production is on record?
**A.** failed

**Q.** For “LSPPRGLVAVRTPRGVLLHWDPPELVPKRLDGYVLEGRQGSQGWEVLDPAVAGTETELLVPGLIKDVLYEFRLVAFAGSFVSDPSNTANVSTSGL”, which protein production is on record?
**A.** not failed

**Q.** With “MPGFTAPTRRQVLSLYKEFIKNANQFNNYNFREYFLSKTRTTFRKNMNQQDPKVLMNLFKEAKNDLGVLKRQSVISQMYTFDRLVVEPLQGRKH” as the sequence, how does the protein production read?
**A.** failed

**Q.** Which protein production does the source give for “MIYWLYLAVFFLLSALDAKEIAMQRFDKQNHKIFEILADKVSAKDNVITASGNAILLNYDVYILADKVRYDTKTKEALLEGNIKVYRGEGLLVKTDYVKLSLNEKYEIIFPFYVQDSVSGIWVSADIASGKDQKYKVKNMSTSGCSIDNPIWHVNATSGSFNMQKSHLSMWNPKIYVGDIPVLYLPYIFMSTSNKRTTGFLYPEFGTSNLDGFIYLQPFYLAPKNSWDMTFTPQIRYKRGFGLNFEARYINSKNDRFLFNARYFRNYTQYVKRYDLRNQNIYGFEFLSSSRDTLQKYFHLKSNIDNGHYIDFLYMNDLDYVRFEKVNKRITDATHMSRANYYLQTENNYYGLNIKYFLNLNKINNNRTFQSVPNLQYHKYLNSLYFRNLLYSVDYQFRNTAREIGYGYVQNALNVPVGLQFSLFKKYLSLGLWNDLQLSNVALMQSKNSFVPTIPNESREFGNFVSSNFSMYVNTDLAREYNKLFHTIQLEAIFNIPYYTFKNGLFSQNMYALSAQALNSYTSPLLRDYDYQGRLYDSVWNPSSILPSNASNKTVDLTLTQYLYGLGGQELLYFKISQLINLDDKVSPFRMPLESKIGFSPLTGLNIFGNVFYSFYQNRLEEISVNANYQRKFLSFNLSYFLKNNFSSGINSIVENLRII” here?
**A.** failed
